Test results from US20220010003A1 (Boehringer Ingelheim, published 2022).

Experiments:
[1] = biological target: T1, recombinant mouse periostin (mouse, UniProt Q62009-2 24-811, limits assumed); test: BLI (Octet Red); Table 6 ties the low end of the range to mouse periostin
T1 construct: also called MoPOSTN
T1 sequence (looked up): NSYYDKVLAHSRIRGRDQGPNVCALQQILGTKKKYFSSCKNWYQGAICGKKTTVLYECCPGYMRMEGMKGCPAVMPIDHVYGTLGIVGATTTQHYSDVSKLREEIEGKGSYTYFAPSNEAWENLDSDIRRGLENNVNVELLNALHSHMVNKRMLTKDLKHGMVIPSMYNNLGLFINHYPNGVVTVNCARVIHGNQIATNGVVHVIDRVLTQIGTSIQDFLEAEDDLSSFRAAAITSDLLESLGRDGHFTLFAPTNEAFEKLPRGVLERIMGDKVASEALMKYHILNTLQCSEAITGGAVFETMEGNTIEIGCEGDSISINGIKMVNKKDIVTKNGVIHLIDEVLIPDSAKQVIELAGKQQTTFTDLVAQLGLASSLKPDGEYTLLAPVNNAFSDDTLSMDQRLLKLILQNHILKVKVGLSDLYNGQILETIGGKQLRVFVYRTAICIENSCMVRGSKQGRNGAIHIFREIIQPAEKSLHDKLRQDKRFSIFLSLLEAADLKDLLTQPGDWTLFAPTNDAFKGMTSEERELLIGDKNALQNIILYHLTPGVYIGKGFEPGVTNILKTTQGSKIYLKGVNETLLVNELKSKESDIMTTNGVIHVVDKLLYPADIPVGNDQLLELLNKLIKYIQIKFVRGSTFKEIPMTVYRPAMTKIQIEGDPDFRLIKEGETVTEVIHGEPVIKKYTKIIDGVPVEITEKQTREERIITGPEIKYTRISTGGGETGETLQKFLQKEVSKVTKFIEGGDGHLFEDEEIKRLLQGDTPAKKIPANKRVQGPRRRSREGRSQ
Description: NB0828's binding affinity was determined across human, mouse, rat, and cyno species. NB0828 affinities were determined using the octet red system. Briefly, anti-human Fc (AHC) biosensors were used to capture NB0828, followed by association of titrating amounts of either recombinant human, mouse, rat, or cyno periostin (100 nM→0 nM; 1:2 dilutions). Recombinant human, mouse, and rat periostin was purchased commercially from R&D systems, whereas cyno periostin was made internally.

NB1243 (L287A) = biological target: T2, NB1243 (L287A) (human, UniProt Q15063 22-631, limits assumed); test: ELISA on alanine variants of POSTN EMI-FAS4, second screen
T2 construct: also called POSTN EMI-FAS4 L287A
T2 sequence: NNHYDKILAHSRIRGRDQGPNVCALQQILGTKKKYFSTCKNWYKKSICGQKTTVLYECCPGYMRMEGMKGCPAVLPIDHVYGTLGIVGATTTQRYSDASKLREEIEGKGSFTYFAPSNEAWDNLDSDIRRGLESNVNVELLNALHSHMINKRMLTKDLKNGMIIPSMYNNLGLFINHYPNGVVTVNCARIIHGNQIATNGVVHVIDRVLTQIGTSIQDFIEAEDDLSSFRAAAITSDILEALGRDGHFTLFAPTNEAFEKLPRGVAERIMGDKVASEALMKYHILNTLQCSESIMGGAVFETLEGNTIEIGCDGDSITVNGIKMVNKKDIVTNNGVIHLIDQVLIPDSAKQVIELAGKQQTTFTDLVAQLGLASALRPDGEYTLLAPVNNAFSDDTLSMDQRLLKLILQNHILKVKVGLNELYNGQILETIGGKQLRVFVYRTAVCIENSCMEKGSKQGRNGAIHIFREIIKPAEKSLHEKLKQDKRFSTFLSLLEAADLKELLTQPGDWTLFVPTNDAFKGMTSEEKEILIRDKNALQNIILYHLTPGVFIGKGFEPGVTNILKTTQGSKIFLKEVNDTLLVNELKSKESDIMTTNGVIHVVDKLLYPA

NB1248 (K302A) = biological target: T3, NB1248 (K302A) (human, UniProt Q15063 22-631, limits assumed); test: as above
T3 construct: also called POSTN EMI-FAS4 K302A
T3 sequence: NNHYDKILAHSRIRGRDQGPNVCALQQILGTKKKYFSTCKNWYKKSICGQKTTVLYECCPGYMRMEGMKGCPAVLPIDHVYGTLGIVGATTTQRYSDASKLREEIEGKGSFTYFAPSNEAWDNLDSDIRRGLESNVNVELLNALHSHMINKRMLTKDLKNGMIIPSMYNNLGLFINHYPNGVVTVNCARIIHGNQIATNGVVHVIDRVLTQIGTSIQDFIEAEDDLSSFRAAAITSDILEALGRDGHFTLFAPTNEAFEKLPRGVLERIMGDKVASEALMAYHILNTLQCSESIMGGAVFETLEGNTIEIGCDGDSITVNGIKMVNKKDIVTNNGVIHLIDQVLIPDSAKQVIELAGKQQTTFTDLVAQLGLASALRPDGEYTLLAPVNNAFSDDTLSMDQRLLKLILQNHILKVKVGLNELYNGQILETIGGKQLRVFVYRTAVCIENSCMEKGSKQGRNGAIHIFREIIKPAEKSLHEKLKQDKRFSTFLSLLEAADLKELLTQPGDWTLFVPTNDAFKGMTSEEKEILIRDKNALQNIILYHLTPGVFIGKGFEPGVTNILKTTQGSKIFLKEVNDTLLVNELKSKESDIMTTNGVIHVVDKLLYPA

B1: NB0828 (antibody, V domains shown)
VH: QVQLVQSGAEVKKPGASVKVSCKASGYTFTSYGISWVRQAPGQGLEWMGWISAYNGNTNYAQKLQGRVTMTTDTSTSTAYMELRSLRSDDTAVYYCARDMLVVPFDYWGQGTLVTVSS
VL: QSVLTQSSSASGTPGQTVTVSCSGSSSDIGSNRVNWYQQLPGTAPKLLIYSNDQRPSGVPDRFSGSKSGTSASLAISGLQSADEADYYCAAWDDSLSTYVFGSGTKVTVL
B1 was tested, and the Kd [1] was 0.1 nM, the “loss from the max signal” value (NB1243 (L287A)) was over 50% and the “loss from the max signal” value (NB1248 (K302A)) was over 50%.
